Source: US20230365705A1 (DYNAMICURE BIOTECHNOLOGY, published 2023)

T1: Human CD93 on cells (human CD93 expressing CHO cells; HUVEC, U937 and KG1a cells) (human, UniProt Q9NPY3 22-652)
T1 construct: whole, on cells; also called hCD93 expressing CHO cells; hCD93 CHO cells
T1 sequence (looked up): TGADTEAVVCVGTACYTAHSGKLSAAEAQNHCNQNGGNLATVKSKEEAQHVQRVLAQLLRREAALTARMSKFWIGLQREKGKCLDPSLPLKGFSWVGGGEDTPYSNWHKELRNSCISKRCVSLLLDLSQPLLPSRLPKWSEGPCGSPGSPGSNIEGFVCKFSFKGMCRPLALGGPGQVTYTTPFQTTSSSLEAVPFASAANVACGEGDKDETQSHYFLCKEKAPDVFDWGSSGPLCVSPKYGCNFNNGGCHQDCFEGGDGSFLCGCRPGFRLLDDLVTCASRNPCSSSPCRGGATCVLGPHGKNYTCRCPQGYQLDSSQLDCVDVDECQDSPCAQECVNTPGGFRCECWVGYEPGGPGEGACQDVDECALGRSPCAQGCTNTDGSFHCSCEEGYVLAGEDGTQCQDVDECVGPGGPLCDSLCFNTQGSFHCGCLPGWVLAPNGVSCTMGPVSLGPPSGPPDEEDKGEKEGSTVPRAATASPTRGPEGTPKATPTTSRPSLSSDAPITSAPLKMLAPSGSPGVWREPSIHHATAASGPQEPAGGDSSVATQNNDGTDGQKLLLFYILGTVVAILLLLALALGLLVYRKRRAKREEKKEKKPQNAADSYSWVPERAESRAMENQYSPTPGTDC

T2: Human CD93 recombinant protein (Sino Biological Inc, Catalog #12589-H08H) (human, UniProt Q9NPY3 22-580)
T2 construct: Biotinylated (EZ-LINK NHS-PEG4 biotin) in the BLI assays; also called hCD93; His-tagged human CD93
T2 sequence (looked up): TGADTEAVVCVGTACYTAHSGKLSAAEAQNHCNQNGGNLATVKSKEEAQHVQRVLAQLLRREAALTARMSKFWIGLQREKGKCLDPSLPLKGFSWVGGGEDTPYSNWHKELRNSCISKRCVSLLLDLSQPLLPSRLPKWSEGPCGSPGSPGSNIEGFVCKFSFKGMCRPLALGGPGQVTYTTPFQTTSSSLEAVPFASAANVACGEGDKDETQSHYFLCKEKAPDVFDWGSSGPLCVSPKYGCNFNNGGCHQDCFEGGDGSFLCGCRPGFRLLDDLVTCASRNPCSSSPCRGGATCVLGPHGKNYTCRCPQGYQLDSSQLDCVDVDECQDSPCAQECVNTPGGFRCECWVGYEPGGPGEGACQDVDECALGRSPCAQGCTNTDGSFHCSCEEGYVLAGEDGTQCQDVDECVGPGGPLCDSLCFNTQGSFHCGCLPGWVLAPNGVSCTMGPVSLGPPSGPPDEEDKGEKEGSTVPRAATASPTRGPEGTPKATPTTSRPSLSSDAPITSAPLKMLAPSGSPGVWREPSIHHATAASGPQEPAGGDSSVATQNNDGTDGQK


How the values were obtained:
[1] = target: T1, Human CD93 on cells (human CD93 …); assay: summary table, column FACS (HUVEC cells)
[2] = target: T1, Human CD93 on cells (human CD93 …); assay: flow cytometry titration, HUVEC cells; antibody stored 2 weeks at 40 C
Description: (§1) HUVEC cells were detached by incubation with TrypLE reagents (Thermo Fisher), which preserves the integrity of CD93 on the cell surface. Then the cells were incubated with serial diluted anti-CD93 antibodies for 30 minutes at 4° C. After washing by FACS buffer, the cells were incubated with Alexa Fluor 647 conjugated anti-human IgG (Jackson ImmunoResearch) for 30 minutes in 4° C. After washing by FACS buffer twice, the samples were acquired in NovoCyte Flow Cytometer and analyzed by NovoExpress software.

[3] = target: T1, Human CD93 on cells (human CD93 …); assay: flow cytometry titration, KG1a cells; antibody stored 4 weeks at 40 C
Description: as §1, with “KG1a” for “HUVEC”

[4] = target: T2, Human CD93 recombinant protein (Sino …); assay: ELISA, His-tagged human CD93 coated, OD450; antibody stored 4 weeks at 40 C
Description: (§2) His-tagged human CD93 was coated onto a 96 well plate at 1 μg/mL in 1×PBS overnight at 4° C. The plate was washed with ELISA wash buffer (Boston BioProduct, Inc.) and the wells were blocked with ELISA blocking buffer for 1 hour at 37° C. […] The plate was washed with ELISA wash Buffer. HRP-conjugated anti-human Fc antibody was incubated for 1 hour at 37° C. The plate was washed with ELISA wash Buffer. HRP substrate was added for indirect detection of the antibodies binding to CD93.

[5] = target: T1, Human CD93 on cells (human CD93 …); assay: summary table, column FACS (KG1a cells); 4 weeks at 40 C
Description: as §1, with “KG1a” for “HUVEC”
as §1, with “KG1a” for “HUVEC”

[6] = target: T2, Human CD93 recombinant protein (Sino …); assay: ELISA, His-tagged human CD93 coated, OD450; antibody stored 2 weeks at 40 C
Description: as §2

[7] = target: T1, Human CD93 on cells (human CD93 …); assay: flow cytometry blocking assay, CHO-hCD93 cells; blocked ligand hMMRN2 495-674 at 0.1 ug/ml
Description: Then the cells were incubated with hMMRN2₄₉₅₋₆₇₄ at 0.1 μg/ml. […] Then the cells were washed with FACS buffer and incubated with APC-conjugated anti-His tag antibody at 1 μg/ml for 30 minutes at 4° C. After washing with FACS buffer twice, the samples were analyzed and data acquired in NovoCyte Flow. Recombinant his tagged […] was produced internally in Expi_HEK following routine procedure.

EC50 [1]	EC50 [2]	EC50 [3]	EC50 [4]	EC50 [5]	EC50 [6]	IC50 [7]	Binder
1.34 nM	1.17 nM	0.019 nM	0.0407 nM	0.019 nM	0.0413 nM	0.133 nM	h7F3 (humanized 7F3, VH3+VL3) (antibody, human IgG1, V domains shown, also called humanized 7F3-hIgG1) VH: QVQLVQSGAEVKKPGASVKVSCKASGYTFTDYEMHWVRQAPGQGLEWMGGIDPETGDTAYNQNFKGRVTMTTDTSTSTAYMELRSLTSDDTAVYYCTNYGNLYYYAMDYWGQGTSVTVSS VL: EIVLTQSPSSLSASVGDRVTITCRASSSVSSSYLHWYQQKPGKAPKLLIYSTSNLAFGVPSRFSGSGSGTSYTFTISSLQPEDIATYYCQQYSGYPLTFGSGTKLEIK
		0.115 nM	0.051 nM	0.115 nM	0.049 nM		h16E4 (humanized 16E4, VH4+VL6) (antibody, V domains shown, Detected with anti-human IgG, so a human Fc) VH: QVQLVQSGAEVKKPGASVKVSCKASGYTFTSYWMHWVRQAPGQGLEWMGEIDPSASYTYYNQKFKGRVTMTRDKSSSTVYMELSSLTSEDSAVYYCARSVYYGNKYFDVWGAGTTVTVSS VL: DIQMTQSPSTLSASVGDRVTITCKASQSVDYAGDSYMNWYQQKPGKAPKLLIYAASNLESGVPSRFSGSGSGTEFTLTISSLQPDDFATYYCQQTNEDPRTFGGGTKLEIK
0.2 nM							16E4 (hybridoma) (antibody, IgG2a, V domains shown, also called 16E4 mAb; 16E4 mIgG2a) VH: QVQLQQPGAELVKPGASVKLSCKASGYTFTSYWMHWVKQRPGQGLEWIGEIDPSASYTYYNQKFKGKATLTVDKSSSTAYMQLSSLTSEDSAVYYCARSVYYGNKYFDVWGAGTTVTVSS VL: not shown
